# Results reported in patent US20220242958A1, “BISPECIFIC NANOBODIES” (Ablynx N.V., priority 2013, published 2022).
# T1: human IL-23R extracellular domain Fc-fusion (Homo sapiens, UniProt Q5VWK5)
# T1 construct: Fc-fusions of human IL12Rβ1, IL12Rβ2 and IL-23R extracellular domains; purchased R&D Systems #1400-IR
# T1 sequence (Q5VWK5 24-355 limits assumed): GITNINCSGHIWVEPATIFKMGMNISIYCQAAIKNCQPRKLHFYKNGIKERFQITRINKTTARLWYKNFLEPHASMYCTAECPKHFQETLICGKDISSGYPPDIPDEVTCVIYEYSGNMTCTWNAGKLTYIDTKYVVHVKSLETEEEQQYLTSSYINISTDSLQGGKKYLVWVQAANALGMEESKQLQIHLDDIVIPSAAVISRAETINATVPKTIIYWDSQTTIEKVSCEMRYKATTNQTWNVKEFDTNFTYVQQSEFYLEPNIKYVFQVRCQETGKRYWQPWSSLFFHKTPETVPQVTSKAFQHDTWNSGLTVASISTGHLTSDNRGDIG
# T2: IL23R on Th17 differentiated T cells (Homo sapiens, UniProt Q5VWK5)
# T2 construct: endogenous in cells; host or cells: T cells within human PBMCs differentiated towards Th17
# T2 sequence (Q5VWK5 24-629): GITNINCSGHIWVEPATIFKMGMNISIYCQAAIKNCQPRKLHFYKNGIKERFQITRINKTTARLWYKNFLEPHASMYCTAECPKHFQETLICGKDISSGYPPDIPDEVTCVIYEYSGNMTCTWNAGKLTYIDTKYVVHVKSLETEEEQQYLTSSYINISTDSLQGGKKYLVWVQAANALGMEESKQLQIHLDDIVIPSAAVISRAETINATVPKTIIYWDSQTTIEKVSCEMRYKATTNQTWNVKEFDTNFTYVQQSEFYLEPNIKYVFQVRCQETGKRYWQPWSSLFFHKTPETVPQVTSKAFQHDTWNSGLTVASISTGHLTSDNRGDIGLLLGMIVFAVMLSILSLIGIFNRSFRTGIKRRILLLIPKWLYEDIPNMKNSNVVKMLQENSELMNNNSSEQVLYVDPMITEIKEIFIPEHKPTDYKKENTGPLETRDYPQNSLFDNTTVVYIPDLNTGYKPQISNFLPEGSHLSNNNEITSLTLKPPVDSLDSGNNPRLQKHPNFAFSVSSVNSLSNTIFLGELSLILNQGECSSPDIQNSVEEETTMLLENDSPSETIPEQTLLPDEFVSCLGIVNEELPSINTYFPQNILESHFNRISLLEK
# B1: MEHD7945A: two-in-one Mab with specificity for EGFR and Her3 (antibody, chains of the INN, looked up, V domains shown)
# VH: EVQLVESGGGLVQPGGSLRLSCAASGFTLSGDWIHWVRQAPGKGLEWVGEISAAGGYTDYADSVKGRFTISADTSKNTAYLQMNSLRAEDTAVYYCARESRVSFEAAMDYWGQGTLVTVSS
# VL: DIQMTQSPSSLSASVGDRVTITCRASQNIATDVAWYQQKPGKAPKLLIYSASFLYSGVPSRFSGSGSGTDFTLTISSLQPEDFATYYCQQSEPEPYTFGQGTKVEIK
# B2: IL12Rb1#31: IL-12Rβ1 specific ligand competing Nanobody (protein)
# VHH: EVQLVESGGGLVQTGGSLRLSCAASGRTPSIIAMGWFRQTPGKEREFVGEIILSKGFTYYADSVKGRFTISRANAKNTITMYLQMNSLKSEDTAVYYCAARQNWSGNPTRTNEYEYWGQGTLVTVSS
# B3: IL23R#20: IL-23R specific ligand competing Nanobody (protein)
# VHH: EVQLVESGGGLVQAGGSLRLSCAASGRTFSSYAMGWFRQAPGKDREFVAAISWIGESTYYADSVKGRFTISRDNAKNTVYLRMNSLKPEDTAVYYCAADLYYTAYVAAADEYDYWGQGTLVTVSS
# What was measured:
# EGFR = EGFR (Homo sapiens, UniProt P00533); conditions: read-out: affinity to EGFR; cited from earlier work
# Her3 = Her3 (Homo sapiens, UniProt P21860); conditions: read-out: affinity to Her3; cited from earlier work
# [1] = tested on: IL-12 dependent IFN-γ release, human T cells; assay: IL-12 mediated IFN-γ release in activated human T cells; type: cell-based; conditions: 0.2 pM IL-12; 72 h; donor D839
# Protocol: The ability of bispecific polypeptides to simultaneously engage both targets on the same cell was analysed in a IL-12 dependent functional assay, inhibition of IL-12 mediated IFN-γ release in activated human T cells. Since the functional blockade is only mediated via IL12R, avidity by the simultaneous binding of the CD4 Nanobody is expected to translate into increased potency of the bispecific in inhibition of cytokine release.
# Isolated human T cells from buffycoats were activated for four days with Dynabeads® Human T-Activator CD3/CD28 (Gibco—Life Technologies #11131D) and one day with IL-2. To differentiate into Th1 subtype, T cells were cultured in presence of IL-12 with co-stimulation provided by plate coated CD3 at 0.5 μg/ml (eBioscience #16-0037-85) and anti-CD28 (1 μg/ml PeliCluster, Sanquin #M1650) in solution.
# Dose-dependent blockade of IL-12 mediated IFNγ release was assessed for the bispecific IL-12Rβ2-CD4 and IL-12Rβ1-CD4 polypeptides in both orientations, and the corresponding monovalent Nanobodies. The IL-23R-CD4 bispecific polypeptides served as negative controls. Representative graphs of the bispecific IL12Rβ1-CD4, IL12Rβ2-CD4 and IL23R-CD4 polypeptides are shown in FIG. 3.9, and IC50 values in Table 3.2. […] Although bispecific constructs in both orientations show potency enhancements, the IL12Rβ2 Nanobody in the N-terminal position from CD4 gave stronger enhancements.
# activated human T cells = assay: Flow cytometry binding to activated human T cells (TH1); conditions: IL12Rb1 and IL12Rb2 Nanobodies on TH1 activated T cells
# Protocol: Dose-dependent binding of monovalent Nanobodies to their cell-expressed receptor in the context of the heterodimeric complex was determined by flow cytometry on activated human T cells from distinct healthy donors.
# Human T cells were isolated using the Human T Cell Enrichment Cocktail (RosetteSep #15061) and pre-activated for four days with Dynabeads® Human T-Activator CD3/CD28 (Gibco—Life Technologies #11131D) and one day with recombinant human IL-2 (Life Technologies—Gibco #PHC0027) to induce TH1 differentiation. Routinely, T cell markers surface expression and activation state was checked by FACS using anti-CD3 PE (eBioscience #12-0037-73), anti-CD8-PE (BD Bioscience #555367), anti-CD45RO-PE (BD Bioscience #555493), anti-CD45RA-APC (BD Bioscience #550855) anti-CD25-PE (BD Bioscience #557138) and anti-CD69-PE (BD Bioscience #557050). IL12R surface expression was confirmed by FACS using IL12Rβ1 antibody (R&D MAB839), followed by goat anti-mouse PE (Jackson Immuno Research 115-115-164). The expression of IL23R was checked by polyclonal goat anti-IL-23R (R&D AF1400). CD4 surface expression was confirmed by FACS using APC-labelled anti-CD4 (BD Bioscience #345771). […]
# Dose-dependent binding of monovalent Nanobodies was assessed by flow cytometry on the respective Th1 or Th17 enriched T cell populations. […] The cells were then analysed via a BD FACSArray.
# [2] = biological target: T3, human IL12Rβ1 extracellular domain Fc-fusion (Homo sapiens, UniProt P42701); assay: SPR (Biacore T100) on IL12Rβ1-Fc; type: binding
# T3 construct: Fc-fusions of human IL12Rβ1, IL12Rβ2 and IL-23R extracellular domains; purchased R&D Systems #839-B1
# Protocol: (§1) The precise binding affinities of the purified Nanobodies were determined in a multi-cycle kinetic analysis using Surface Plasmon Resonance analysis (Biacore T100) on Fc-fusions of human IL12Rβ1, IL12Rβ2 and IL-23R extracellular domains (R&D Systems, #839-B1, #1959-B2, #1400-IR). Sensorchips CM5 were immobilized with anti-hIgG antibody (GE Healthcare, BR-1008-39), after which receptors were captured at 5 μg/ml protein and contact time of 120 seconds. Running buffer used was HBS-EP+ (GE Healthcare, BR-1006-69) at 25° C., with a flow-rate of […]. For immobilization by amine coupling, EDC/NHS was used for activation and ethanolamine HCl for deactivation (Biacore, amine coupling kit). Nanobodies were evaluated at a concentration range between 1.37 nM and 3 μM. Nanobodies were allowed to associate for 2 min and to dissociate for 15 min at a flow rate of […]. In between injections, the surfaces were regenerated with a 3 min pulse of 3M MgCl2 and 2 min stabilization period. Evaluation of the association/dissociation data was performed by fitting a 1:1 interaction model (Langmuir binding model) by Biacore TWO software v2.0.3.
# [3] = biological target: T1, human IL-23R extracellular domain Fc-fusion; assay: SPR (Biacore T100) on IL-23R-Fc; type: binding
# Protocol: as §1
# [4] = tested on: IL-23 dependent IL-17 release, human PBMCs; assay: IL-23 dependent IL-17 release in human PBMCs; type: cell-based; conditions: 9 days; donor D840
# Protocol: In this assay set-up human PBMCs were cultured in the presence of soluble IL23 to allow differentiation of T cells towards the Th17 phenotype. Cells were seeded onto OKT-3 (eBioscience #16-0037-85) coated plates in the presence of recombinant human IL-23 (eBioscience #14-8239) and PeliCluster CD28 (Sanquin #M1650) in solution. Cytokine (IL17) release in the presence or absence of the respectively Nanobodies was determined by ELISA after an incubation period of 9 days.
# Dose-dependent inhibition of the panel of bispecific IL23R-CD4 and IL12Rβ1-CD4 polypeptides was assessed in comparison to the respective monovalent Nanobodies, with in this case the IL12Rβ1-CD4 specific polypeptides serving as negative controls. […] There is a preference for the IL12Rβ1 building block in the C-terminal position from CD4 in this assay. There is a clear difference in potency between the two IL12Rβ1 family members, corresponding to the different binding kinetics and affinities, and this difference is preserved in the potency of the bispecific constructs.
# [5] = biological target: T2, IL23R on Th17 differentiated T cells; assay: Flow cytometry binding to T cells differentiated towards Th17 phenotype; conditions: IL23R Nanobodies on Th17 differentiated cells
# Protocol: As the expression of IL23R was very low in the T cell pool, the binding of monovalent IL23R Nanobodies was assessed on cells that were differentiated towards the Th17 phenotype by the incubation of PBMCs in the presence of a cytokine cocktail and IL-23, recombinant IL-6 (eBioscience #34-8069-82), recombinant TGF-b1 (R&D #240-B), anti-human IL-4 antibody(BD#554481), recombinant IL-1b (BD#554602)) and recombinant Human IL-23 (R&D Systems #219-IL-005) with co-stimulation of plate coated OKT-3 (eBioscience #16-0037-85), PeliCluster CD28 (Sanquin #M1650). Following this procedure, low but detectable IL23R expression levels were obtained. Optimization in the Th17 differentiation protocol could further increase these expression levels.
# Dose-dependent binding of monovalent Nanobodies was assessed by flow cytometry on the respective Th1 or Th17 enriched T cell populations. Serial dilutions of antibody or Nanobodies were allowed to associate for 30 minutes at 4° C. in FACS buffer (PBS supplemented with 10% FBS and 0.05% azide). Cells were washed by centrifugation and probed with anti-FLAG antibodies (Sigma F1804) for 30 minutes at 4° C., to detect bound Nanobody. Detection was done with Goat anti-Mouse IgG-PE (Jackson ImmunoResearch #115-116-071) for 30 minutes at 4° C. […] The cells were then analysed via a BD FACSArray.
molecule,measurement,setting,value
B1,Kd,EGFR,1.9 nM
same,Kd,Her3,0.39 nM
B2,IFNγ release T cells D839 IC50 (M),[1],no fit
same,Binding T cells (FACS) EC50 (M),activated human T cells,No fit
same,"Binding kinetics (SPR) ka (1/Ms), IL12Rβ1",[2],720000 M⁻¹ s⁻¹
same,"Binding kinetics (SPR) kd (1/s), IL12Rβ1",[2],0.017 s⁻¹
B3,"Binding kinetics (SPR) ka (1/Ms), IL-23R",[3],3e+06 M⁻¹ s⁻¹
same,"Binding kinetics (SPR) kd (1/s), IL-23R",[3],0.23 s⁻¹
same,IL-17 release PBMC D840 IC50 (M),[4],no fit
same,Binding T cells (FACS) EC50 (M),[5],No fit
